Reference: patent publication US20130295095A1 (GEORG AUGUST UNIVERSIT T G TTINGEN STIFTUNG FFENTLICHEN …, published 2013)

Target: T1, AβpE3-38 (human, UniProt P05067 674-709, pyroglutamate at position 3 (N-terminal residue))
T1 construct: range 3-38; The range counts on Aβ numbering, not on the APP precursor; also called human AβpE3-38
Assay: ELISA screening of hybridoma clones
Source text: The AβpE3 oligomere specific antibodies 9D5H6 (IgG2b) and 8C4D2 (IgG1) were generated by immunizing three Balb/c mice with AβpE3-38. After preparation of the lymph nodes cells were fused with the myeloma cell line P3-X63-Ag8. The hybridoma supernatants of mixed clones were screened by ELISA and subcloned. The monoclonal antibodies 9D5 and 8C4 were selected by ELISA against different N-terminal Aβ epitopes. Clones producing signals with AβpE3-38 and AβpE3-42, but no signal with […] were isolated and further characterized. For comparison, Aβ antibodies 4G8 (Aβ epitope 17-24; Covance), W0-2 (Aβ epitope 4-8; The Genetics Company), NT78 (against generic Aβ1-16, Synaptic Systems) and 2-48 (against N-terminal AβpE3, Synaptic Systems; Wirths, O., et al. J Neural Transm 117, 85-96 (2010)) were used. GFAP (rabbit) and IBA1 (rabbit) antisera were from Synaptic Systems and Wako Pure Chemicals respectively. Peptides were purchased from PSL (Heidelberg, Germany), reconstituted as indicated below and immediately frozen until further use.

T1 sequence (P05067 674-709): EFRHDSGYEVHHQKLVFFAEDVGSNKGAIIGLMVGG

binding result: binds
B1: PG3-38 9D5H6 (antibody, V domains shown)
VH: QLQQSGAELMKPGASVKISCKATGYTFSSYWIEWVKQRPGHGLEWIGEILPGRGSTHYNEKFKGKATFTADTSSNTAYMQLSSLTSEDSAVYYCARSPITTSDYWGQGTTLTVSS
VL: DVVMTQTPLSLPVSLGDQASISCRSSQSLLHSNGNTYLHWYLQKPGQSPKLLIYKVSNRFSGVPDRFSGSGSGTDFTLKISRVEAEDLGVYFCSQSTHVPLTFGAGT
notes: The printed VH starts at QLQQ and the printed VL ends at FGAGT, so both may be slightly truncated; also called antibody obtainable from hybridoma DSM ACC3056
